What was measured:
httex1Q97-GFP, P42858 = test: cell-based or functional assay
[1] = target: T1, peptide consisting of the first 20 amino acids of htt, MATLEKLMKAFESLKSFQQQ-biotin (C-terminal biotin); test: titration of yeast surface displayed intrabody with biotinylated peptide, flow cytometry; Example 4 text's estimate from FIG. 24B
T1 construct: Synthesized to contain three glutamines; also called huntingtin peptide; huntingtin peptide antigen
T1 peptide: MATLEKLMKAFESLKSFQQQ
From the text: A peptide consisting of the first 20 amino acids of htt was used as the antigen ([…]-biotin (SEQ ID NO:9), synthesized by the MIT biopolymers lab). The antigen was synthesized to contain three glutamines because the beginning of the polyglutamine region would be an ideal target for interfering with the misfolding of htt exon I. Affinity maturation of VL,C22V,C89A relied upon protocols previously described (Colby, D. W. et al., Methods Enzymol 388: 348-358, 2004). Briefly, the VL,C22V,C89A gene was used as the template for the creation of a library of point mutants through error-prone PCR using nucleotide analogues. The resulting PCR products were amplified and transformed into yeast along with digested pCTCON (a yeast surface display vector) to create a library through homologous recombination (Raymond, C. K. et al., Biotechniques 26: 134-138, 140-141, 1999). […] These mutants were then used as the template in the next round of library generation. The entire process, from library generation to isolation of improved mutants, was repeated three times to yield VL12.3. FACS sorting was performed using a Cytomation Moflo FACS machine by the staff of the MIT Flow cytometry core facility. All constructs and clones were sequenced at the MIT biopolymers lab.
Intrabody lacking disulflde bond engineered for high affinity by directed evolution. […]

[2] = target: T1, peptide consisting of the first 20 …; test: antigen binding curves of yeast surface displayed VL mutants, flow cytometry; figure legend's estimate from FIG. 24B
Method: (§1) Both intrabodies are equally capable of partially blocking aggregation when overexpressed at high levels. *** p<0.001. FIG. 24D is a schematic homology model that includes mutations obtained during engineering; model contains residues present before mutagenesis. Mutations observed after mutagenesis and sorting were F371, Y51D, K67R, and A75T.
(§2) Yeast surface display. […] Yeast surface display labeling experiments to measure expression and binding were conducted as previously described (Boder, E. T. et al., Methods Enzymol 328: 430-444, 2000). A peptide consisting of the first 20 amino acids of htt was used as the antigen ([…]-biotin (SEQ ID NO:9), synthesized by the MIT biopolymers lab). The antigen was synthesized to contain three glutamines because the beginning of the polyglutamine region would be an ideal target for interfering with the misfolding of htt exon I. Affinity maturation of VL,C22V,C89A relied upon protocols previously described (Colby, D. W. et al., Methods Enzymol 388: 348-358, 2004). Briefly, the VL,C22V,C89A gene was used as the template for the creation of a library of point mutants through error-prone PCR using nucleotide analogues. […]

[3] = target: T1, peptide consisting of the first 20 …; test: titration of yeast surface displayed intrabody with biotinylated peptide, flow cytometry
Method: as §1, §2

[4] = target: T1, peptide consisting of the first 20 …; test: yeast surface display, flow cytometry with huntingtin peptide (method not restated in the sentence)
Method: as §1, §2

[5] = target: T1, peptide consisting of the first 20 …; test: yeast surface display, flow cytometry with huntingtin peptide
Method: as §1, §2

[6] = target: T1, peptide consisting of the first 20 …; test: yeast surface display titration
Method: as §1, §2

[7] = target: T1, peptide consisting of the first 20 …; test: yeast surface display, flow cytometry
Method: as §1, §2

B1: VL12.3 (other)
VL: MGSQPVLTQSPSVSAAPRQRVTISVSGSNSNIGSNTVNWIQQLPGRAPELLMYDDDLLAPGVSDRFSGSRSGTSASLTISGLQSEDEADYYAATWDDSLNGWVFGGGTKVTVLSGHHHHHH
notes: It carries N-terminal MGS and C-terminal GHHHHHH, which is the his6 intrabody form; also called engineered intrabody VL12.3; Ad-VL12.3 (adenovirus carrying the gene)
- formation of aggregates in ST14A cells, 1:1 intrabody:htt plasmid ratio (httex1Q97-GFP, P42858): 80 % reduction
- formation of aggregates in ST14A cells, higher intrabody:htt plasmid ratios (httex1Q97-GFP, P42858): > 90 % reduction
- Kd [1]: ~0.005 µM
- Kd [2]: ~0.003 µM

B2: VL (anti-huntingtin single-domain antibody, variable light chain only), yeast-surface displayed (other)
VL: QPVLTQSPSVSAAPRQRVTISCSGSNSNIGSNTVNWFQQLPGRAPELLMYYDDLLAPGVSDRFSGSKSGTSASLAISGLQSEDEADYYCATWDDSLNGWVFGGGTKVTVLS
notes: Single human VL domain with its disulfide bond; also called SDAb; SDIb
- Kd [3]: ~0.03 µM
- Kd [4]: 0.03 to 0.05 µM

B3: VL,C22V,C89A (disulfide-free VL), yeast-surface displayed (other)
VL: QPVLTQSPSVSAAPRQRVTISVSGSNSNIGSNTVNWFQQLPGRAPELLMYYDDLLAPGVSDRFSGSKSGTSASLAISGLQSEDEADYYAATWDDSLNGWVFGGGTKVTVLS
notes: also called disulfide-free antibody; disulfide knock-out
- Kd [3]: > 10 µM
- fold decrease in affinity against the SDAb with its disulfide bond [5]: ~100 fold
- fold difference in affinity against VL [6]: ~1000 fold

B4: engineered (affinity matured) disulfide-free SDIb of Examples 1 and 3 (other)
VL: SRPVLTQSPSVSAAPRQRVTISVSGSNSNIGSNTVNWIQQLPGRAPELLMYDDDLLAPGVSDRFSGSRSGTSASLTISGLQSEDEADYYAATWDDSLNDWVFGGGTKVTVLS
notes: expressed in yeast cytoplasm for the aggregation assay (construct not described); also called engineered SDIb
- Kd [7]: ~0.01 µM
